From patent US10736971B2, “Peptide-based molecules for modulating car expression or accessibility and uses thereof” (Wright State University, priority 2015, dated 2020)

B1: PDZ1 domain: MAGI-1 PDZ1 decoy domain, expressed from transfected plasmid in CHO-K1 cells (protein)
chain: RKSSRGFGFTVVGGDEPDEFLQIKSLVLDGPAALDGKMETGDVIVSVNDTCVLGHTHAQVVKIFQSIP
modifications: PEPTIDE WILL BE CREATED USING CONVENTIONAL MEANS
notes: MAGI-1 PDZ1 decoy domain, expressed from transfected plasmid in CHO-K1 cells
B2: MAGI-1 PDZ3 domain: MAGI-1 PDZ3 decoy domain, expressed from transfected plasmid in CHO-K1 cells (protein)
chain: KETGFGFRILGGNEPGEPIYIGHIVPLGAADTDGRLRSGDELICVDGTPVIGKSHQLVVQLMQQAAKQGHVNLTVR
modifications: PEPTIDE WILL BE CREATED USING CONVENTIONAL MEANS
notes: MAGI-1 PDZ3 decoy domain, expressed from transfected plasmid in CHO-K1 cells

Tested on: AdV-β-Gal
Experiment: AdV-β-Gal transduction of transfected CAR-deficient CHO-K1 cells
Type: cell-based, Chinese hamster
Details: CHO-K1 transfected with CAR^Ex8, MAGI-1 and PDZ domain plasmids, MOI 100
Description: CAR-deficient CHO-K1 cells were A) single, B) double, or C) triple transfected with plasmids encoding CAR^Ex8, MAGI-1 (black bars), PDZ1 domain (dotted bars), or PDZ3 domain (white bars), and balanced with empty pcDNA3.1 plasmid, followed by AdV-β-Gal (MOI 100) transduction. CHO-K1 cells were double transfected with CAR^Ex8 and pcDNA3.1, MAGI-1, PDZ3, or PDZ1 and analyzed for D) total CAR^Ex8 protein or E) cell-surface biotinylated CAR^Ex8 protein expression. Quantification of at least three individual experiments is shown in all bar graphs. *p<0.05.

Row | Molecule | Adenovirus infection (AdV-β-Gal transduction)
1 | B1 | inhibits MAGI-1-mediated CAR^Ex8 suppression to allow adenovirus infection
2 | B2 | decreases
